Experimental data taken from US6881827B2, “Molecular cloning of a 7TM receptor (AXOR34) and screening methods thereof” (SmithKline Beecham Corporation, priority 1999, dated 2005).

Molecular target: T1, AXOR34 (Homo sapiens, UniProt Q9GZQ4)
T1 construct: expressed in transfected cells; host or cells: HEK-293 cells, transient transfection (pCDN vector as the empty-vector control)
Assay: FLIPR calcium mobilization assay in HEK-293 cells transiently transfected with AXOR34
Format: cell-based
Conditions: ligand concentrations 1 μM-0.1 nM
Description: There was no concentration-dependent activity for pCDNs or untransfected cells.

T1 sequence (Q9GZQ4 whole entry): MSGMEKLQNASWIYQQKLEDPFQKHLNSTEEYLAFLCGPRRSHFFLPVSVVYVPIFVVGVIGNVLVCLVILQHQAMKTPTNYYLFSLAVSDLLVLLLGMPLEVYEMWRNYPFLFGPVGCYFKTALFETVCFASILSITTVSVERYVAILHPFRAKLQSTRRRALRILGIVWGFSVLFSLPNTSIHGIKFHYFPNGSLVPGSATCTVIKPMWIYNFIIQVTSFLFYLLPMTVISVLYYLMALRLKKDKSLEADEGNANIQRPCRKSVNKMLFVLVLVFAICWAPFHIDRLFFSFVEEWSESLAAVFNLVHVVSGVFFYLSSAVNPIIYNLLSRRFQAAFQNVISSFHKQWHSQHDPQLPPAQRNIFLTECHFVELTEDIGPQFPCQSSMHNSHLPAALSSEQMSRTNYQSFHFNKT

porcine Neuromedin U-8 [porcine NmU-8]
calcium mobilization response: robust calcium mobilization responses

porcine Neuromedin U-25 (FLVDEEFQGPIVSQNRRYFLFRPRN; HOMO SAPIENS) [porcine NmU-25]
calcium mobilization response: robust calcium mobilization responses

rat Neuromedin U-23 (YKVNEYQGPVAPSGGFFLFRPRN; HOMO SAPIENS) [rat NmU-23]
calcium mobilization response: robust calcium mobilization responses
